B1: SPPL2c isoform A: N106A (protein)
parent chain: MACLGSLHPLGSLLLLFLLLLLSPEARGEYGLVRVVSKNWSKDYCVLYSSDYVNLPRDLHHAPLLSLHDGTKTPWCPDEDSFHQAQDSSPRQRPLHQTTTMVTRGNCSFYAKGWLAQDQGAQGLLIVSRARNQQCSDTISKPQDPSKPWPALTIPVAVLRYTDMLDIVSHTYGDTDVRVAMFAPLEPVTDYNMAIIFILAVGTVAAGGYWAGLMEANKLQRRQAQRGGGLGGHNQQQTVAAERSQRAWEDDDFEDAPMDFTPAMTGAVVTMSCSIMILLYFFYDCFVYVMIGIFSLGASTGLYSCLAPILCHLPLWRYQWVLPGQRVSVTWPLLLLAGLCAMVTVLWVIHRNEDHWAWLLQDTLGVAYCLFVLRRVRLPTFKNCTLFLLALLAFDVFFVFITPLFTKTGESIMVEVASGPADSSSHERLPMVLKVPRLSFSALTLCNQPFSILGFGDIVVPGFLVAYCHRFDMQVQSRQVYYMACTVAYAVGLLVTFVAMILMQMGQPALLYLVSSTLLTSLAVATCRQEFTLFWTGQGRAKIPAEPVAQPCIASAVGSKMKLEDAKDSRTTNRFEQAVDGESGDLESSTGDDMAEMVTLSEDEATSPEGHSESSEGWSDTNLDPNELPSGSPMALEAMLIPLIQPIPHPSELGHIRTQSRVHDSSLPWMGLHKRKGLKVKKSMSAQAPL
B2: SPP: N10/20A (protein)
parent chain: MDSAVSDPHNGSAEAGTPANGTTRPPSTPEGIALAYGSLLLMALLPIFFGALRSVRCARGKSSSDMPETITSRDAARFPIIASCTLLGLYLFFKIFSQEYINLLLSMYFFVLGILALSHTISPFMNKFFPANFPNRQYQLLFTQGSGENKEEIINYEFDTKDLVCLGLSSVVGVWYLLRKHWIANNLFGLAFSLNGVELLHLNNVSTGCILLGGLFIYDIFWVFGTNVMVTVAKSFEAPIKLVFPQDLLEKGLEADNFAMLGLGDIVIPGIFIALLLRFDISLKKNTHTYFYTSFAAYIFGLGLTIFIMHIFKHAQPALLYLVPACIGFPVLVALAKGEVAEMFSYEESNPKDPAAETESKEESTEASASKRLEKKEK

Assays:
[1] = immunofluorescence of HO-1 ICD nuclear translocation, HeLa; conditions: glycan lost; control: wild type SPPL2c-myc
[2] = cell-based cleavage assay, western blot; conditions: glycan lost
[3] = western blot of total lysates, HEK293T; conditions: glycan lost; control: wild type SPPL2c-myc

Row | Protein | enzymatic_activity [1] | enzymatic_activity ([2]; control: wild type SPPL2c-myc) | expression_or_secretion [3] | enzymatic_activity ([2]; control: wild type SPP-myc)
1 | B1 | abolishes | abolishes | decreases | –
2 | B2 | – | – | – | no change
